# Reference: article PMC9098913, “In vitro reconstitution of Escherichia coli divisome activation” (Nature Communications, 2022)
# Test: Diffusion coefficient (Dcoeff) of FtsA from FRAP
# Details: for Diffusion Coefficient, mean: Fig. 3j; for Dcoeff: Fig. S3i/S3j, summary value
# Description: We could also use the data from these bleaching experiments to quantify the membrane-binding kinetics and diffusion of membrane-bound proteins by analysing the change of the fluorescence profile during recovery.
# Equimolar concentrations of Cy3- and Cy5-labelled FtsA, supplemented with 20% unlabelled FtsA were used to study FRET and FRAP. Five pre-bleach frames were acquired, followed by acceptor photobleaching of a rectangular ROI with 40% 641 nm laser power and a dwell size of 1 µs/pixel, 75% overlapping lines. The recovery of the signal or the increase in donor intensity were measured with either two frames or one frame per second.
# Bleaching the acceptor dye leads to an increase in the donor intensity, which can be used to quantify the Foerster Resonance energy transfer (FRET)[48]. FRET efficiency was quantified with E%=Ipost/Ipost+Ipre⋅100 , where Ipost is the intensity of the […] and Ipre is the […]. […] To extract the contribution of both processes, we adjusted a routine recently published by Gerganova et al.[33]. In short, the code provides the contribution of both modes of recovery by analysing the shape of the fluorescence recovery profile. […] Contribution of diffusion leads to a change of the slope of the outer borders of the bleached region (S4h right). Thus, by measuring the change of the slope of the border recovery, diffusion and simple on/off binding can be distinguished. We developed “FRAPdiff”, a graphical user interface, which uses the original fit routine by David Rutkowski. It can be used directly on.tiff movies with annotated bleach regions as ImageJ ROIs. In addition, we added optional bleach correction, user selectable projection axis (x or y), and optional mirroring of the recovery profiles, if bleaching was not symmetric. The original fit routine for estimating the recovery and diffusion dynamics can be found at https://github.com/davidmrutkowski/1DReflectingDiffusion. FRAPdiff is available at 10.5281/zenodo.6400639[49] under the GPLv3 open-source license.
molecule,measurement,setting,value
"FtsA R286W (protein, Cy3 or Cy5 at the N-terminus in the labelled form (labelled CLEPTGG peptide conjugated to the 5xGly tag by sortagging); unlabelled protein also used; left off: TwinStrep-SUMO, N-terminal, cleaved | 5x) MIKATDRKLVVGLEIGTAKVAALVGEVLPDGMVNIIGVGSCPSRGMDKGGVNDLESVVKCVQRAIDQAELMADCQISSVYLALSGKHISCQNEIGMVPISEEEVTQEDVENVVHTAKSVRVRDEHRVLHVIPQEYAIDYQEGIKNPVGLSGVRMQAKVHLITCHNDMAKNIVKAVERCGLKVDQLIFAGLASSYSVLTEDERELGVCVVDIGGGTMDIAVYTGGALRHTKVIPYAGNVVTSDIAYAFGTPPSDAEAIKVRHGCALGSIVGKDESVEVPSVGGRPPWSLQRQTLAEVIEPRYTELLNLVNEEILQLQEKLRQQGVKHHLAAGIVLTGGAAQIEGLAACAQRVFHTQVRIGAPLNITGLTDYAQEPYYSTAVGLLHYGKESHLNGEAEVEKRVTASVGSWIKRLNSWLRKEF","Diffusion Coefficient, mean",0.1 µM FtsA + N,7.25E-02 µm2/s
same,"Diffusion Coefficient, mean",0.1 µM FtsA + Z&N,2.31E-02 µm2/s
same,"Diffusion Coefficient, mean",0.1 µM FtsA + Z,5.72E-03 µm2/s
same,Diffusion Coefficient,"0.1µM FtsA alone, Mean, n=18 (WT), 6 (R286W)",0.0520
same,"Diffusion Coefficient, mean",0.1 µM FtsA alone,5.20E-02 µm2/s
same,Diffusion Coefficient,"0.1µM FtsA alone, replicate Exp.1",8.43E-02
same,Diffusion Coefficient,"0.1µM FtsA alone, replicate Exp.2",1.09E-02
same,Diffusion Coefficient,"0.1µM FtsA alone, replicate Exp.3",6.73E-03
same,Diffusion Coefficient,"0.1µM FtsA alone, replicate Exp.4",8.58E-02
same,Diffusion Coefficient,"0.1µM FtsA alone, replicate Exp.5",8.30E-02
same,Diffusion Coefficient,"0.1µM FtsA alone, replicate Exp.6",4.11E-02
same,Diffusion Coefficient,"0.1µM, + FtsN&Z, Mean, n=5 (WT), 3 (R286W)",0.0231
same,Diffusion Coefficient,"0.1µM, + FtsN&Z, replicate Exp.1",1.54E-02
same,Diffusion Coefficient,"0.1µM, + FtsN&Z, replicate Exp.2",3.28E-02
same,Diffusion Coefficient,"0.1µM, + FtsN&Z, replicate Exp.3",2.10E-02
same,Diffusion Coefficient,"0.1µM, + FtsN, Mean, n=5 (WT), 3 (R286W)",0.0725
same,Diffusion Coefficient,"0.1µM, + FtsN, replicate Exp.1",2.08E-01
same,Diffusion Coefficient,"0.1µM, + FtsN, replicate Exp.2",5.52E-03
same,Diffusion Coefficient,"0.1µM, + FtsN, replicate Exp.3",4.11E-03
same,Diffusion Coefficient,"0.1µM, + FtsZ, Mean, n=8 (WT), 4 (R286W)",0.0057
same,Diffusion Coefficient,"0.1µM, + FtsZ, replicate Exp.1",3.86E-04
same,Diffusion Coefficient,"0.1µM, + FtsZ, replicate Exp.2",2.70E-04
same,Diffusion Coefficient,"0.1µM, + FtsZ, replicate Exp.3",1.57E-02
same,Diffusion Coefficient,"0.1µM, + FtsZ, replicate Exp.4",6.48E-03
same,"Diffusion Coefficient, mean",0.2 µM FtsA + N,7.49E-02 µm2/s
same,"Diffusion Coefficient, mean",0.2 µM FtsA + Z&N,3.50E-02 µm2/s
same,"Diffusion Coefficient, mean",0.2 µM FtsA + Z,1.81E-02 µm2/s
same,Diffusion Coefficient,"0.2µM FtsA alone, Mean, n=24 (WT), 6 (R286W)",0.1536
same,"Diffusion Coefficient, mean",0.2 µM FtsA alone,1.54E-01 µm2/s
same,Diffusion Coefficient,"0.2µM FtsA alone, replicate Exp.1",5.97E-01
same,Diffusion Coefficient,"0.2µM FtsA alone, replicate Exp.2",7.31E-02
same,Diffusion Coefficient,"0.2µM FtsA alone, replicate Exp.3",7.49E-02
same,Diffusion Coefficient,"0.2µM FtsA alone, replicate Exp.4",3.26E-02
same,Diffusion Coefficient,"0.2µM FtsA alone, replicate Exp.5",1.37E-01
same,Diffusion Coefficient,"0.2µM FtsA alone, replicate Exp.6",6.07E-03
same,Diffusion Coefficient,"0.2µM, + FtsN&Z, Mean, n=8 (WT), 6 (R286W)",0.0350
same,Diffusion Coefficient,"0.2µM, + FtsN&Z, replicate Exp.1",5.92E-02
same,Diffusion Coefficient,"0.2µM, + FtsN&Z, replicate Exp.2",5.62E-02
same,Diffusion Coefficient,"0.2µM, + FtsN&Z, replicate Exp.3",3.73E-02
same,Diffusion Coefficient,"0.2µM, + FtsN&Z, replicate Exp.4",2.25E-02
same,Diffusion Coefficient,"0.2µM, + FtsN&Z, replicate Exp.5",3.21E-02
same,Diffusion Coefficient,"0.2µM, + FtsN&Z, replicate Exp.6",2.82E-03
same,Diffusion Coefficient,"0.2µM, + FtsN, Mean, n=7 (WT), 4 (R286W)",0.0749
same,Diffusion Coefficient,"0.2µM, + FtsN, replicate Exp.1",3.41E-02
same,Diffusion Coefficient,"0.2µM, + FtsN, replicate Exp.2",6.37E-02
same,Diffusion Coefficient,"0.2µM, + FtsN, replicate Exp.3",1.01E-01
same,Diffusion Coefficient,"0.2µM, + FtsN, replicate Exp.4",1.01E-01
same,Diffusion Coefficient,"0.2µM, + FtsZ, Mean, n=7 (WT), 6 (R286W)",0.0181
same,Diffusion Coefficient,"0.2µM, + FtsZ, replicate Exp.1",2.61E-02
same,Diffusion Coefficient,"0.2µM, + FtsZ, replicate Exp.2",3.49E-02
same,Diffusion Coefficient,"0.2µM, + FtsZ, replicate Exp.3",2.40E-02
same,Diffusion Coefficient,"0.2µM, + FtsZ, replicate Exp.4",1.48E-02
same,Diffusion Coefficient,"0.2µM, + FtsZ, replicate Exp.5",2.86E-04
same,Diffusion Coefficient,"0.2µM, + FtsZ, replicate Exp.6",8.41E-03
same,"Diffusion Coefficient, mean",0.4 µM FtsA + N,4.57E-02 µm2/s
same,"Diffusion Coefficient, mean",0.4 µM FtsA + Z&N,7.88E-03 µm2/s
same,"Diffusion Coefficient, mean",0.4 µM FtsA + Z,3.05E-02 µm2/s
same,Diffusion Coefficient,"0.4µM FtsA alone, Mean, n=18 (WT), 9 (R286W)",0.1352
same,"Diffusion Coefficient, mean",0.4 µM FtsA alone,1.35E-01 µm2/s
same,Diffusion Coefficient,"0.4µM FtsA alone, replicate Exp.1",1.81E-01
same,Diffusion Coefficient,"0.4µM FtsA alone, replicate Exp.2",2.05E-02
same,Diffusion Coefficient,"0.4µM FtsA alone, replicate Exp.3",2.71E-02
same,Diffusion Coefficient,"0.4µM FtsA alone, replicate Exp.4",1.05E-01
same,Diffusion Coefficient,"0.4µM FtsA alone, replicate Exp.5",1.05E-01
same,Diffusion Coefficient,"0.4µM FtsA alone, replicate Exp.6",1.63E-01
same,Diffusion Coefficient,"0.4µM FtsA alone, replicate Exp.7",2.73E-01
same,Diffusion Coefficient,"0.4µM FtsA alone, replicate Exp.8",2.14E-01
same,Diffusion Coefficient,"0.4µM FtsA alone, replicate Exp.9",1.27E-01
same,Diffusion Coefficient,"0.4 µM FtsA, FRAP, p-value […] 10^−6",0.14 ± 0.08 µm^2/s
same,Diffusion Coefficient,"0.4µM, + FtsN&Z, Mean, n=6 (WT), 9 (R286W)",0.0079
same,Diffusion Coefficient,"0.4µM, + FtsN&Z, replicate Exp.1",3.88E-02
same,Diffusion Coefficient,"0.4µM, + FtsN&Z, replicate Exp.2",8.74E-03
same,Diffusion Coefficient,"0.4µM, + FtsN&Z, replicate Exp.3",4.31E-03
same,Diffusion Coefficient,"0.4µM, + FtsN&Z, replicate Exp.4",3.80E-04
same,Diffusion Coefficient,"0.4µM, + FtsN&Z, replicate Exp.5",1.83E-02
same,Diffusion Coefficient,"0.4µM, + FtsN&Z, replicate Exp.6",1.51E-04
same,Diffusion Coefficient,"0.4µM, + FtsN&Z, replicate Exp.7",1.71E-04
same,Diffusion Coefficient,"0.4µM, + FtsN, Mean, n=5 (WT), 6 (R286W)",0.0457
same,Diffusion Coefficient,"0.4µM, + FtsN, replicate Exp.1",2.78E-02
same,Diffusion Coefficient,"0.4µM, + FtsN, replicate Exp.2",2.32E-02
same,Diffusion Coefficient,"0.4µM, + FtsN, replicate Exp.3",3.10E-02
same,Diffusion Coefficient,"0.4µM, + FtsN, replicate Exp.4",1.25E-01
same,Diffusion Coefficient,"0.4µM, + FtsN, replicate Exp.5",3.86E-02
same,Diffusion Coefficient,"0.4µM, + FtsN, replicate Exp.6",2.82E-02
same,Diffusion Coefficient,"0.4µM, + FtsZ, Mean, n=5 (WT), 8 (R286W)",0.0305
same,Diffusion Coefficient,"0.4µM, + FtsZ, replicate Exp.1",9.70E-03
same,Diffusion Coefficient,"0.4µM, + FtsZ, replicate Exp.2",1.10E-04
same,Diffusion Coefficient,"0.4µM, + FtsZ, replicate Exp.3",2.57E-02
same,Diffusion Coefficient,"0.4µM, + FtsZ, replicate Exp.4",8.47E-04
same,Diffusion Coefficient,"0.4µM, + FtsZ, replicate Exp.5",3.19E-02
same,Diffusion Coefficient,"0.4µM, + FtsZ, replicate Exp.6",1.28E-01
same,Diffusion Coefficient,"0.4µM, + FtsZ, replicate Exp.7",3.30E-03
same,Diffusion Coefficient,"0.4µM, + FtsZ, replicate Exp.8",4.40E-02
same,"Diffusion Coefficient, mean",0.8 µM FtsA + N,4.39E-02 µm2/s
same,"Diffusion Coefficient, mean",0.8 µM FtsA + Z&N,7.03E-03 µm2/s
same,"Diffusion Coefficient, mean",0.8 µM FtsA + Z,1.59E-02 µm2/s
same,Diffusion Coefficient,"0.8µM FtsA alone, Mean, n=19 (WT), 8 (R286W)",0.1136
same,"Diffusion Coefficient, mean",0.8 µM FtsA alone,1.14E-01 µm2/s
same,Diffusion Coefficient,"0.8µM FtsA alone, replicate Exp.1",2.82E-01
same,Diffusion Coefficient,"0.8µM FtsA alone, replicate Exp.2",8.82E-02
same,Diffusion Coefficient,"0.8µM FtsA alone, replicate Exp.3",6.72E-02
same,Diffusion Coefficient,"0.8µM FtsA alone, replicate Exp.4",7.30E-02
same,Diffusion Coefficient,"0.8µM FtsA alone, replicate Exp.5",1.01E-01
same,Diffusion Coefficient,"0.8µM FtsA alone, replicate Exp.6",8.47E-02
same,Diffusion Coefficient,"0.8µM FtsA alone, replicate Exp.7",1.13E-01
same,Diffusion Coefficient,"0.8µM FtsA alone, replicate Exp.8",9.93E-02
same,Diffusion Coefficient,"0.8µM, + FtsN&Z, Mean, n=5 (WT), 4 (R286W)",0.0070
same,Diffusion Coefficient,"0.8µM, + FtsN&Z, replicate Exp.1",2.90E-03
same,Diffusion Coefficient,"0.8µM, + FtsN&Z, replicate Exp.2",7.64E-03
same,Diffusion Coefficient,"0.8µM, + FtsN&Z, replicate Exp.3",1.38E-02
same,Diffusion Coefficient,"0.8µM, + FtsN&Z, replicate Exp.4",3.70E-03
same,Diffusion Coefficient,"0.8µM, + FtsN, Mean, n=4 (WT), 3 (R286W)",0.0439
same,Diffusion Coefficient,"0.8µM, + FtsN, replicate Exp.1",1.96E-02
same,Diffusion Coefficient,"0.8µM, + FtsN, replicate Exp.2",4.05E-02
same,Diffusion Coefficient,"0.8µM, + FtsN, replicate Exp.3",7.15E-02
same,Diffusion Coefficient,"0.8µM, + FtsZ, Mean, n=3 (WT), 8 (R286W)",0.0159
same,Diffusion Coefficient,"0.8µM, + FtsZ, replicate Exp.1",3.69E-02
same,Diffusion Coefficient,"0.8µM, + FtsZ, replicate Exp.2",8.95E-03
same,Diffusion Coefficient,"0.8µM, + FtsZ, replicate Exp.3",1.47E-02
same,Diffusion Coefficient,"0.8µM, + FtsZ, replicate Exp.4",3.84E-03
same,Diffusion Coefficient,"0.8µM, + FtsZ, replicate Exp.5",3.32E-03
same,Diffusion Coefficient,"0.8µM, + FtsZ, replicate Exp.6",1.93E-02
same,Diffusion Coefficient,"0.8µM, + FtsZ, replicate Exp.7",8.19E-14
same,Diffusion Coefficient,"0.8µM, + FtsZ, replicate Exp.8",4.01E-02
same,Dcoeff,0.10 µM FtsA,5.20E-02 µm2/s
same,Dcoeff,0.20 µM FtsA,6.48E-02 µm2/s
same,Dcoeff,0.40 µM FtsA,1.35E-01 µm2/s
same,Dcoeff,0.80 µM FtsA,1.14E-01 µm2/s
